Data set [1] has as its target SARS-CoV-2 spike glycoprotein subunit 1 (S1) (SARS-CoV-2) (UniProt P0DTC2). In words: BLI. On the technique in general: Biolayer interferometry detects binding as a change in optical thickness at a sensor tip.
Data set [2] concerns the target TNF-alpha (UniProt P01375). In words: BLI. To be noted: SEQ 37 part DNA primer, selected region TNA 3'-2', 24 C, 2 mM CaCl2.
Where [3] appears, read: SEQ 37 part DNA primer, selected region TNA 3'-2', all T = C5-benzyl carboxamide U (UPhe).
[4] abbreviates: SEQ 37 part DNA primer, selected region TNA 3'-2', all T = C5-indole carboxamide U (UTrp).
Setting [5] is: all T = C5-benzyl carboxamide U (UPhe).
[6] abbreviates: all T = C5-indole carboxamide U (UTrp).

The Kd is the equilibrium constant for the complex coming apart. Read a low Kd as tighter binding.

Read-outs that look alike come from different tables or passages of the source.

Chain of TNF-alpha (P01375 77-233): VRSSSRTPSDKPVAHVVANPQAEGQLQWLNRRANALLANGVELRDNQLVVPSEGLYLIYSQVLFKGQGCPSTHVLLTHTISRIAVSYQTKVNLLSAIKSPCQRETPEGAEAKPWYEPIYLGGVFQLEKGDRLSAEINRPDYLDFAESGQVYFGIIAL

For the sequence “GTCCCCTTGGGGATACCACCTACATTACGCGTTAGCGTTAATGGGTATGTCCGGACAGTG [S1 Phe entry 14]”, the Kd in data set [1] (setting [3]) was determined as 36 nM.

Sequence “GTCCCCTTGGGGATACCACCGCGGCCAGATCCCCGATATGTTAACGTCCTTTTATGCGGG [TNA 913]” returned an equilibrium dissociation constant (Kd) in data set [1] (SEQ 37 part DNA primer, selected region TNA 3'-2', all T = C5-indole carboxamide U (UTrp; from doped Trp-1 library)) of 0.85 nM. Consider “GTCCCCTTGGGGATACCACCATTGTGCGAAGTATACATAGCAGATGCGTGACATAACAAG [S1 Trp entry 20]”, for which the Kd in data set [1] (setting [4]) came out at 5.1 nM. With “GTCCCCTTGGGGATACCACCAAACTGTTGGGACTTGTAATGTCGTCATCAGCTAAGAGTC [S1 Trp entry 22]”, in data set [1] (setting [4]), the Kd came out at 21.1 nM.

With “GTCCCCTTGGGGATACCACCAGAACTTCGTCAGCGTCTTACCGAGTCCAAGGACTGGCTA [S1 Phe entry 12]”, in data set [1] (setting [3]), the Kd was 28.8 nM.

Regarding “GTCCCCTTGGGGATACCACCAGAGCAAGTCATGATCGCGAGTTTAGCTTTTTCATTTCCC [TNF Phe entry 9]”, the Kd in data set [2] (setting [5]) was 86 nM. In turn, “GTCCCCTTGGGGATACCACCACGAGTAGGCCGCATTATGATGATTTAAACTGTTTCATGC [TNF Trp-3]” returned a Kd in data set [2] (all T = C5-indole carboxamide U (UTrp), three replicates 16, 17, 27 nM) of 20 nM. “GTCCCCTTGGGGATACCACCACTTTTGCTTGAGATTCGGCGCATTTCGTGCAGTGATGTA [TNF Phe entry 5]” registered a Kd in data set [2] (setting [5]) of 27 nM. On to “GTCCCCTTGGGGATACCACCCGTACAACTCCGGTTTCGGGCGGCCCGTTCTTCAGTTTGA [S1 Trp entry 18]”, for which the Kd in data set [1] (setting [4]) was determined as 2.7 nM. For the sequence “GTCCCCTTGGGGATACCACCTTTCTATGCATCTCGGGGATGCGGGATATAAAAGAGAGAC [S1 Trp entry 23]”, in data set [1] (setting [4]), the Kd was determined as 29.1 nM. For the sequence “GTCCCCTTGGGGATACCACCTTGGCGAGATCCCCTATACGTGAGCTTCCTTTTATCCTTT [S1 Trp-1]”, the Kd in data set [1] came to 3.1 nM.

With “GTCCCCTTGGGGATACCACCACGATGGACTTGGGTAGCTAGTCAGGTTAGGCTGTTTGGA [S1 Phe entry 11]”, in data set [1] (setting [3]), the Kd was determined as 22.1 nM. In data set [2] (setting [5]), “GTCCCCTTGGGGATACCACCTTAATTTTGAGATCTTTGTCGAGTTGCTCGGTGAAAAGTC [TNF Phe entry 8]” registered an equilibrium dissociation constant (Kd) of 70 nM. “GTCCCCTTGGGGATACCACCTGACACCTGGCACGAATGCGCAGACGACGTTGTTTTGCGT [TNF Phe entry 4]” yielded a Kd in data set [2] (setting [5]) of 19 nM. In data set [2] (natural bases, R2 0.88), “GTCCCCTTGGGGATACCACCGCGGGGGGTGTTGTGTAACTGTTTTTTGCCGGAAAGACGC [TNF standard entry 1]” displayed a Kd of 42 nM.

The sequence “GTCCCCTTGGGGATACCACCCGCGGCGTTGCGTAGCGCCAATCCTGCACAGAGGCGGGCG [TNF standard entry 3]” registered a Kd in data set [2] (natural bases, R2 0.88) of 141 nM. “GTCCCCTTGGGGATACCACCAGGCTTATGAAATCTTATGTGAACCGGGCATACGGGCGAT [S1 Phe entry 4]” yielded a Kd in data set [1] (setting [3]) of 5.2 nM.

Consider “GTCCCCTTGGGGATACCACCCGTGCACGATCTAGCCAGTGCTCGCTTGAAATGGGCGCAG [S1 Standard-2]”, for which the Kd in data set [1] (SEQ 37 part DNA primer, selected region TNA 3'-2', natural bases) stood at 34 nM. In data set [1] (setting [3]), “GTCCCCTTGGGGATACCACCTATTGGAACTCCCGAGCAGGCTGTCCCATGGAAGACTACA [S1 Phe entry 3]” had a Kd of 2.6 nM. In data set [1] (SEQ 37 part DNA primer, selected region TNA 3'-2', threomer base modification (side chain not stated, probably UTrp)), “GTCCCCTTGGGGATACCACCTTAGTATTATTATGGGTGCGTGAGTTTCCAAGAAGCGCGT [TNA 949]” yielded a Kd of 0.7 nM. In turn, “GTCCCCTTGGGGATACCACCGGCACTATCGATTATCGTGCGCATTGGTTGTGTCCAGGCT [TNF Trp entry 10]” yielded a Kd in data set [2] (setting [6]) of 7.3 nM. In data set [1] (SEQ 37 part DNA primer, selected region alpha-L-threofuranosyl (TNA) 3'-2', natural bases), “GTCCCCTTGGGGATACCACCTGGCGAGGGGTAGTGAGCTGACGGATAGGGCTAGTGGAAC [S1 standard entry 1]” showed a Kd of 17.6 nM.

Consider “GTCCCCTTGGGGATACCACCTCACGTCTGTTGTACACTTGTGCAATGCAAGGACGGAAAA [TNF Trp entry 11]”, for which, in data set [2] (setting [6]), the Kd stood at 12 nM.

In data set [1] (setting [3]), “GTCCCCTTGGGGATACCACCTGTACGCCATATAGGCAGTCATCGAGCAACGAAGTAATGG [S1 Phe entry 9]” returned a dissociation constant (Kd) of 16.7 nM. The sequence “GTCCCCTTGGGGATACCACCATCGAGTTGTGACGTTAACGATAATAGCCCGCTCCGATTC [S1 Phe entry 13]” yielded a Kd in data set [1] (setting [3]) of 31 nM.

For “GTCCCCTTGGGGATACCACCGACGCTATGACTGGTATGGTGTGTGAGCTTCGAGGTCTGA [TNF Standard-2]”, the Kd in data set [2] (natural bases, three replicates 109, 76, 62 nM, approximate, poor curve fit) was 82 nM.

“GTCCCCTTGGGGATACCACCGAATGCGCTTGAGCGCGCCCGATGATATAGCGAACCAAGC [TNF Phe entry 7]”: the Kd in data set [2] (setting [5]) amounted to 54 nM.

In turn, “GTCCCCTTGGGGATACCACCGAGAGTCATAGTAGTTCACGGGTCTGCAGCTTACGCATGT [S1 Phe entry 6]” had a Kd in data set [1] (setting [3]) of 11.3 nM. In turn, “GTCCCCTTGGGGATACCACCGGTGTAATAAGGAGAGTACGTCGTTTGGTGGGACCGGGTA [S1 Phe entry 15]” gave a Kd in data set [1] (setting [3]) of 39 nM.

For the sequence “GTCCCCTTGGGGATACCACCCTTAGGTCGGCCTTTGACCATTCGTGCAAAACTTAGCGAA [TNF Phe entry 6]”, the equilibrium dissociation constant (Kd) in data set [2] (setting [5]) worked out at 41 nM.

In data set [1] (setting [4]), “GTCCCCTTGGGGATACCACCTAAGGAAAGGGGAGCGGGTAGGAGGTTCGTCGGGTGCGAC [S1 Trp entry 19]” came in with a Kd of 4.2 nM.

(Values after patent US20250092406.)
